Assay results: US20230331848A1 (BIOSION, published 2023)

T1: recombinant mouse PD-1-his protein (Cat#:50124-M08H, Sino Biological Inc) (mouse, UniProt Q02242 25-167)
T1 construct: Bought protein used in Biacore and indirect ELISA; not shown: his tag
T1 sequence (looked up): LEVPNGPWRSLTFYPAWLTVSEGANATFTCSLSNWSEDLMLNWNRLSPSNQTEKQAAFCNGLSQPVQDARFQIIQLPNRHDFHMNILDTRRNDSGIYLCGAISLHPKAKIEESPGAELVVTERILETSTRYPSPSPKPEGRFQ


Columns and labels:
[1] = target: T2, human PD-1-his protein prepared in-house (human, UniProt Q15116 25-167, biotin-labeled (sites not given)); test: capture ELISA, antibody captured, biotin human PD-1-his detected
T2 construct: also called biotin labeled human PD-1-his
Method: Briefly, 96-well micro plates were coated with 100 μl 2 μg/ml AffiniPure Goat Anti-Mouse IgG F(ab′)₂ fragment specific (Cat#:115-005-072, Jackson lmmunoResearch) or Goat-anti-human IgG (Cat#:109-005-097, Jackson ImmunoResearch, for the positive control and negative control) in PBS overnight at 4° C. Plates were washed once with wash buffer (PBST, PBS+0.05% Tween-20) and then blocked with 200 μl/well blocking buffer (5% w/v non-fatty milk in PBST) for 2 hours at 37° C. […] After a final wash, plates were incubated with 100 μl/well TMB (Cat#:TMB-S-002, Innoreagents) at room temperature.
For the capture ELISA, 96-well plates were coated with 100 μl 2 μg/ml AffiniPure Goat Anti-Human IgG, Fcγ fragment specific (Cat#:109-005-098, Jackson Immunoresearch) instead of AffiniPure goat-anti-mouse IgG F(ab′)₂ fragment specific.

[2] = target: T3, in house made human PD-1-Fc protein (human, biotin-labeled (sites not given)); test: blocking FACS: biotin human PD-1-Fc + antibody on GS-C2/PD-L1 cells (competitor: cell-surface human PD-L1)
T3 construct: also called biotin-labeled human PD-1-Fc
Method: GS-C2/PDL1 cells were harvested from cell culture flasks at the log phase, washed twice and re-suspended in PBS containing 2% v/v Fetal Bovine Serum (FACS buffer). GS-C2/PD-L1 cells, 0.6×10⁵ cells per welt, were incubated in 96 well-plates with 100 the antibody/PD1-Fc mixture for 40 minutes at 4° C. Cells were washed twice with FACS buffer, added with 100 R-Phycoerythrin Streptavidin (1:500 dilution in FACS buffer, Cat#:016-110-084, Jackson Immunoresearch), and incubated for 40 minutes at 4° C. in dark. Cells were washed twice and re-suspended in FACS buffer. Fluorescence was measured using a Becton Dickinson FACS Canto II-HTS equipment. Data was analyzed using Graphpad Prism software and IC₅₀ values were reported.

[3] = target: T1, recombinant mouse PD-1-his protein …; test: SPR (Biacore), Example 9
[4] = target: T4, human PD-1 expressed on GS-J2/PD-1 cells (Genscript) (human, UniProt Q15116 25-288); test: cell-based or functional assay
[5] = target: T2, human PD-1-his protein prepared in-house; test: competitive ELISA: biotin human PD-1-his + antibody on coated Pembrolizumab (competitor)
Method: ELISA plates were washed once with wash buffer (PBST, PBS+0.05% Tween-20) and then blocked with 200 μl/well blocking buffer (5% w/v non-fatty milk in PBST) for 2 hours at 37° C. […] After incubation at 37° C. for 40 minutes, plates were washed using wash buffer, added and incubated with 100 μl/well Peroxidase Streptavidin for 40 minutes at 37° C. Plates were washed again using wash buffer. Finally, TMB was added and the reaction was stopped using 1M H₂SO₄. The absorbance was read on a microplate reader using dual wavelength mode with 450 nm for TMB and 630 nm as the reference wavelength, and the OD (450-630) values were plotted against antibody concentrations. Data was analyzed using Graphpad Prism software and IC₅₀ values were reported.

[6] = target: T5, cynomolgus PD-1-his protein (Cat#:PD1-05223, Acro biosystems Inc.) (cynomolgus, UniProt B0LAJ3 25-170); test: indirect ELISA on coated cynomolgus PD-1-his
T5 construct: Bought protein used in Biacore and indirect ELISA; also called monkey PD-1; Cyno PD-1

[7] = target: T6, human PD-1-his protein (Cat#:PD1-H5221, Acro biosystems Inc.) (human, UniProt Q15116 25-167); test: BLI (Octet RED96), supernatant antibody captured on AHC sensor, human PD-1-his in solution, 1:1 fit
T6 construct: not shown: his tag
Method: Briefly, AHC biosensors (anti-human IgG Fe capture, from ForteBio) were presoaked with 10 mM glycine (pH 1.5) for 3 seconds, and then dipped in a well with running buffer (0.5% w/v BSA in PBST) for 3 seconds, the soaking and dipping steps were repeated for three times. […] A new baseline was run for 100 seconds in another well with running buffer. Then the sensors were dipped in a well with serially diluted human PD-1-his protein (Cat#:PD1-H5221, Acro biosystems Inc., starting at 100 nM with a two-fold serial dilution) in running buffer for 120 seconds, and then immersed in a baseline well for […]. Finally, sensors were presoaked with 10 mM glycine (pH 1.5) for 30 seconds, and then were dipped in a well with running buffer for 30 seconds. The association and dissociation curves were fit to a 1:1 Langmuir binding model using ForteBio Data Analysis 8.1 evaluation software.

[8] = target: T4, human PD-1 expressed on GS-J2/PD-1 …; test: flow cytometry on GS-J2/PD-1 cells
Method: In specific, the 293F-mouse PD-1 cells and GS-J2/PD-1 cells were respectively harvested from cell culture flasks, washed twice and re-suspended in PBS containing 2% v/v Fetal Bovine Serum (FACS buffer). Then, 2×10⁵ cells per well were incubated in 96 well-plates with 100 μl of the anti-PD1 antibodies or controls at various concentrations for 40 minutes on ice. […] Following an incubation of 40 minutes at 4° C. in dark, cells were washed three times and re-suspended in FACS buffer. Fluorescence was measured using a Becton Dickinson FACS Canto II-HTS equipment and plotted against antibody concentrations. Data was analyzed using GraphPad Prism software and EC₅₀ values were reported.
For the cell-based binding FACS, R-Phycoerythrin AffiniPure Goat Anti-human IgG Fcγ fragment specific (Cat#:109-115-098, Jackson ImmunoResearch) was used for the humanized antibodies, with 1:1000 dilution in FACS buffer, 100 μl/well.

[9] = target: T5, cynomolgus PD-1-his protein …; test: SPR (Biacore), Example 9
[10] = target: T7, recombinant human PD-1-his protein (Cat#:10377-H08H, Sino biological Inc.) (human, UniProt Q15116 25-167); test: SPR (Biacore), Example 9
T7 construct: Bought protein used as analyte in the Biacore tests; not shown: his tag

[11] = target: T4, human PD-1 expressed on GS-J2/PD-1 …; test: cell-based binding FACS on GS-J2/PD-1 cells expressing human PD-1 (MFI); unit from the axis 'Con of mAb, nM.'
[12] = target: T3, in house made human PD-1-Fc protein; test: competitive ELISA: biotin human PD-1-Fc + antibody on coated human PD-L1-Fc (competitor)
Method: Briefly, 100 μl human PD-L1-Fc protein (prepared in-house with SEQ ID NO: 28) at 2 μg/mL in carbonate/bicarbonate buffer (pH 9.6) was coated on 96-well micro plates overnight at 4° C., Plates were washed with wash buffer (PBS+0.05% w/v Tween-20, PBST), and blocked with 5% w/v non-fatty milk in PBST for 2 hours at 37° C. […] After incubation at 37° C. for 40 minutes, plates were washed using wash buffer. […] Plates were washed again using wash buffer. Finally, TMB was added and the reaction was stopped using 1M H₂SO₄. The absorbance was read on a microplate reader using dual wavelength mode with 450 nm for TMB and 630 nm as the reference wavelength, then the OD (450-630) values were plotted against antibody concentrations. Data was analyzed using Graphpad Prism software and IC₅₀ values were reported.

Row | EC50 [1] [pM] | IC50 [2] [pM] | Kd [3] [pM] | koff [3] [s⁻¹] | kon [3] [M⁻¹ s⁻¹] | Cell-based functional assay (EC50, nM) [4] [nM] | IC50 [5] [pM] | EC50 [6] [pM] | Kd [7] [pM] | koff [7] [s⁻¹] | kon [7] [M⁻¹ s⁻¹] | EC50 [8] [pM] | Kd [9] [pM] | koff [9] [s⁻¹] | kon [9] [M⁻¹ s⁻¹] | Kd [10] [pM] | koff [10] [s⁻¹] | kon [10] [M⁻¹ s⁻¹] | EC50 [11] [pM] | IC50 [12] [pM] | Binder
1 | 210 | 550 | 380000 | 0.0182 | 47900 | 5.13 | 510 | 820 | 1130 | 0.000291 | 258000 | 630 | 1340 | 0.000484 | 361000 | 634 | 0.000593 | 934000 | 461 | 330 | humanized antibody huE1A9C8A7-V8 (antibody, human IgG4 S228P, kappa, V domains shown, Human IgG4/kappa) VH: QVQLVQSGAEVVKPGASVKISCKASGYTFTDYVMHWVRQAPGQSLEWMGVISTYHIPAVYNQKFKGKATMTVDTSTSTVYLELSSLRSEDTAVYYCAREVYGDSYYFDVWGQGTTVTVSS VL: DIVMTQTPLSLPVTPGEPASISCRSSQSIVHSNGNTYLEWYLQKPGQSPQLLIYKVSNRFSGVPDRFSGSGSGTDFTLKISRVEAEDVGVYYCFQGSHVPYTFGGGTKVEIKR
2 | – | – | 244000 | 0.0167 | 64800 | – | – | – | – | – | – | – | 722 | 0.000332 | 461000 | 382 | 0.00041 | 1.07e+06 | 451 | – | humanized antibody huE1A9C8A7-V8-3 (antibody, human IgG4 S228P, kappa, V domains shown, huE1A9C8A7-V8 modified in VH CDR3 (D to E) and VL CDR1 (N to A)) VH: QVQLVQSGAEVVKPGASVKISCKASGYTFTDYVMHWVRQAPGQSLEWMGVISTYHIPAVYNQKFKGKATMTVDTSTSTVYLELSSLRSEDTAVYYCAREVYGESYYFDVWGQGTTVTVSS VL: DIVMTQTPLSLPVTPGEPASISCRSSQSIVHSAGNTYLEWYLQKPGQSPQLLIYKVSNRFSGVPDRFSGSGSGTDFTLKISRVEAEDVGVYYCFQGSHVPYTFGGGTKVEIKR
